Experimental data taken from patent US20170152308A1 (Biogen, published 2017).

B1: NI-205.25F3 (antibody, human IgG1, V domains shown)
VH: QVQLVESGGGVVQPGRSLRLSCAASGFTFSNYVMYWVRQAPGKGLEWVAFISYDGSNKYYPDSVKGRFTISRDNSMNTLYLQMDSLRAEDTAVYYCARDTYQYDSSTYYPYFYYYGMDVWGQGTTVTVSS
VL: QSALTQPASVSGSPGQSITISCIGTSSDVGGYNYVSWYQQHPGKAPKLMIYEVSNRPSGVSSRFSGSKSGNTASLTISGLQSEDEADYYCSSFASSSTSVTFGGGTKLTVL
notes: Human-derived
B2: NI-205.8A2 (antibody, human IgG1, V domains shown)
VH: QVQLVESGGGVVQPGKSLRLSCAASGFTFRDHGMHWVRQAPGKGLEWVAVIWLDGSSRFYADSVEGRFTISRDNSKNTLYLQLTSLRAEDTAIYYCARDRVASEGTAFDVWGQGTMVTVSS
VL: EIVLTQSPATLSLSPGERATLSCWASQNVNHYLVWYQQRPGQAPRLLLYDTSVRAAGIPARFIGSGSGTHFTLTISSLEPEDSAVYYCQHRSDWTFGQGTKVEIK
notes: Human-derived
B3: NI-205.15F12 (antibody, human IgG1, V domains shown)
VH: QVQLVQSGTAVKKPGASVKVSCKASGFSFNGYYMHWVRQAPGQGLEWMGVINPNGGSTNYAQKFKGRITMSADTPARSVSMELGSLRSDDTAMYYCARLPVNIEVLDLWGQGTLVTVSS
VL: DIVMTQSPDSLAVSLGERATINCRSSQTVLFSSNDKNYLAWYQQKPGQPPKLLIYWASVRASGVPDRFSGSGSGTDFSLTINGLQAEDVAVYYCQQSSTAPLTFGGGTKVEIK
notes: Human-derived
B4: NI-205.31D2 (antibody, human IgG1, V domains shown)
VH: EVQLLESGGGSVQPGGSLRLSCAASGFTFSTYVMSWVRQAPGKGLEWVSAISRRGGSTYYADSVKGRFTISRDNSKNTLYLQMNSLRAEDTAVYYCAKDRWLTGRTGGVFDIWGQGTMVTVSS
VL: not shown
notes: Human-derived
B5: NI-205.10H7 (antibody, human IgG1, V domains shown)
VH: QVQLVESGGGVVQPGRSLRLSCAASGFTFSNYAMHWVRQAPGKGLEWVAVIWYDGSKKYYGDSVKGRFTISRDNPKNTLYLQMNSLRVEDTAIYYCVPDAFDMWGQGTMVTVSS
VL: DIVMTQTPLSSPVTLGQPASISCRSSQSLVHTDGKTYLSWLHQRPGQPPRPLIYKMSKRFSGVPDRFSGSGAETEFTLKISRVEAEDVGIYYCLQLTQFPITFGQGTRLEIK
notes: Human-derived
B6: NI-205.36D5 (antibody, human IgG1, V domains shown)
VH: QVQLVESGGGVVQPGRSLRLSCAASRFTFSSYGMHWVRQAPGKGLEWVALIYYDATQKYYADSVKGRFTISRDNSKNALYLQMTSLRADDTAVYYCARDLPYHYHRSASFAPADTWGQGTLVTVSS
VL: EIVLTQSPGTLSLSPGERATLSCRASQTISNNYLAWYQQKPGQAPRLLVYAASSRATGIPDRFYGSGSGADFTLTISRLEPEDFVVYYCQQYGSSPITFGQGTRLEIK
notes: Human-derived
B7: NI-205.8F8 (antibody, human IgG1, V domains shown)
VH: EVQLLESGGGLVQPGGSLRLSCAASGYTFSYYAMSWVRQAPGKGLEWVSTIGDSGSTTHYADSVKGRFTISRDNSKSTLYLQMNSLRAEDTAVYYCAKGLGPVAAIGDYWGQGTLVTVSS
VL: QSVLTQPPSASGTPGQRVTISCSGSSSNIGSNNVYWYQQLPGTAPKLLVYRNNQRPSGVPDRVSGSKSGSSASLAISGLRSEDEADYYCAAWDDSLRGYVFGTGTKVTVL
notes: Human-derived
B8: NI-205.14H5 (antibody, human IgG1, V domains shown)
VH: EVQLLESGGGLVQPGGSLRLSCAASGFTFRNYAMAWVRQAPGKGLEWVSAIPARGDKTYYADSVRGRFTISRDISKSALYLQMNSLRVEDTAVYYCAKAHHLYNKNFDYWGQGTLVTVSS
VL: EIVLTQSPGTLSLSPGETVTLSCRASQSVSSSNLAWYQQKPGQAPRLLIYGASSRATGIPDRFSGRGSGTDFTLTISRLEPEDFAVYYCQHYGTFGQGTKVDIK
notes: Human-derived
B9: NI-205.10D3 (antibody, human IgG1, V domains shown)
VH: QVQLQESGPGLVKPSETLSLTCTVSGGSITDYYWSWIRQPPGKGLEWIGYIHDSGTTRYNPSLTSRLSMSLDTSTNQVSLRLTSVTAADTAVYYCAKVPDYWGQGTLVTVSS
VL: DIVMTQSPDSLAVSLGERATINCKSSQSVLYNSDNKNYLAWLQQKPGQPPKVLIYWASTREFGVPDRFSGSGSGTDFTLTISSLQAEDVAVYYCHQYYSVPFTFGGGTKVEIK
notes: Human-derived

Each binder was assayed against T1, recombinant full-length His-tagged human TDP-43 (2-414) (human, UniProt Q13148 2-414) (assay: direct ELISA, coated antigen).
T1 construct: Amino terminal His tag, made in E. coli, purified in 8 M urea; also called full length TDP-43; full-length TDP-43
Method: (§1) The half maximal effective concentration (EC₅₀) of the human-derived TDP-43-specific antibodies for human TDP-43 and their target target-specificity was determined substantially as described in Example 2 above. Briefly, 96 well microplates (Corning) were coated with recombinant full length TDP-43 (Biogen Idec, USA), Escherichia coli extract and BSA (Sigma, Buchs, Switzerland), diluted to a concentration of 5 μg/ml in carbonate ELISA coating buffer (pH 9.6) overnight at 4° C. […] Non-specific binding sites were blocked for 1 hr. at room temperature with PBS containing 2% BSA (Sigma, Buchs, Switzerland). Human TDP-43-specific antibodies were diluted to the indicated concentrations and incubated 1 hr. at room temperature. Binding was determined using a donkey anti-human IgGγ-specific secondary antibody conjugated with HRP (Jackson ImmunoResearch, USA), followed by measurement of HRP activity in a standard colorimetric assay. EC₅₀ values were estimated by a non-linear regression using GraphPad Prism software (San Diego, USA).

Row | EC50 | Binder
1 | 13.3 nM | B1
2 | 7.2 nM | B2
3 | 7.2 nM | B3

Biological target: T1, recombinant full-length His-tagged …
Assay: direct ELISA, coated antigen
Remark: another data set of the same source
Method: as §1

Row | EC50 | binding result | Binder
4 | > 41 nM | – | B4
5 | 13.3 nM | – | B1
6 | 15.3 nM | – | B5
7 | 7.2 nM | – | B2
8 | > 72 nM | – | B6
9 | – | no binding | B7
10 | > 100 nM | – | B8
11 | 7.2 nM | – | B3
12 | 7.3 nM | – | B9

What follows are binders tested against T2, 6xHis-SUMO-TDP-43 (1-414), properly folded full length (human, UniProt Q13148 1-414) (assay: capture ELISA, antigen held by anti-6xHis antibody).
T2 construct: Purified with KSCN and arginine, monomeric; captured on the plate by an anti-6xHis antibody; also called folded full-length TDP-43; 6xHis/SUMO tagged full length TDP-43; not shown: N-terminal 6xHis and SUMO tags from a modified pET19-b vector
Method: (§2) Non-specific binding sites were blocked for 1 hr at RT with PBS containing 1% BSA (Sigma) and 0.05% Tween-20 (Fisher Scientific). 6×His-SUMO-TDP43 proteins at a concentration of 1.7 μM were allowed to bind to antibody-coated plates for 1 hr at RT in PBS buffer containing 1% BSA, 300 mM arginine and 0.1% PEG 5000, pH 7.5. Plates were incubated for 1 hr at RT with human antibodies of present invention, titrated in a three-fold dilution series, followed by HRP conjugated anti-human IgG Fc γ (Jackson ImmunoResearch) in PBST containing 1% BSA. HRP activity was measured in a standard colorimetric assay. EC₅₀ values were calculated using a four-parameter logistic curve fit on Softmax pro software (Molecular Devices).
(§3) We measured the binding affinity of the human-derived TDP-43 specific antibodies provided herein to properly folded 6×His/SUMO tagged TDP-43 using a capture ELISA in which native TDP-43 was immobilized without direct adsorption on the surface of the ELISA plate. This was achieved by immobilizing an anti 6×His antibody which then captured native TDP-43. […] After this immobilization step, binding by human antibodies was tested in regular buffers without interference of TDP-43 aggregation.

T2 sequence (Q13148 whole entry): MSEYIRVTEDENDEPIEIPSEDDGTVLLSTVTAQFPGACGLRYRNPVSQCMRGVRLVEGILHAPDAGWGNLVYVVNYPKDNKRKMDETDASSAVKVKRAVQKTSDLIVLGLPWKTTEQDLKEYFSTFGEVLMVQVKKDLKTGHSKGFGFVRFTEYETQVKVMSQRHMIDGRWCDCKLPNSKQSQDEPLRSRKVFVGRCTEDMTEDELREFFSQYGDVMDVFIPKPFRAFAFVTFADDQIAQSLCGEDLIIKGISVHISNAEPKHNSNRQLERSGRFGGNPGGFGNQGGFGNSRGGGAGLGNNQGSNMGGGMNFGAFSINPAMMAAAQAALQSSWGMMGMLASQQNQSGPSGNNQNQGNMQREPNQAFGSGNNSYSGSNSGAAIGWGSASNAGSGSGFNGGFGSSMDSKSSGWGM

Row | EC50 | Binder
13 | 41 nM | B4
14 | > 120 nM | B1
15 | 30.9 nM | B5
16 | 34 nM | B2
17 | > 72 nM | B6
18 | > 94 nM | B7
19 | > 100 nM | B8
20 | 16.3 nM | B3
21 | > 90 nM | B9

Each binder was assayed against T3, 6xHis-SUMO-TDP-43 (220-414) (human, UniProt Q13148 220-414) (assay: capture ELISA, antigen held by anti-6xHis antibody).
T3 construct: Captured on the plate by an anti-6xHis antibody; also called 6xHis/SUMO tagged truncated TDP-43; not shown: N-terminal 6xHis and SUMO tags from a modified pET19-b vector
Method: as §2, §3

T3 sequence (Q13148 220-414): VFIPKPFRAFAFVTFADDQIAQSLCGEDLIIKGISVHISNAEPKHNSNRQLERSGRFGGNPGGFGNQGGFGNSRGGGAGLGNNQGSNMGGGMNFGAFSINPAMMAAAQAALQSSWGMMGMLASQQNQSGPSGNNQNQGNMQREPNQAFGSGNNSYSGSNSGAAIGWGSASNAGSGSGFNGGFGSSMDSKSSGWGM

Row | EC50 | Binder
22 | 19.4 nM | B4
23 | > 100 nM | B1
24 | 6.45 nM | B5
25 | 4.6 nM | B2
26 | > 60 nM | B6
27 | 9.7 nM | B3
28 | 20.5 nM | B9

Biological target: T4, His-huTDP-43 domain I (amino acid residues 2-106) (human)
T4 construct: Amino terminal His-tagged fragment, E. coli; also called N-terminal domain
T4 chain: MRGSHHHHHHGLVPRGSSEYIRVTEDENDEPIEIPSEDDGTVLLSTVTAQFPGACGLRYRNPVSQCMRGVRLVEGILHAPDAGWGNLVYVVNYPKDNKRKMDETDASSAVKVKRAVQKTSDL
Assay: direct ELISA, His-tagged TDP-43 fragments coated at 6.6 ug/ml, OD 450
Method: (§4) Non-specific binding sites were blocked for 1 hr. at room temperature with PBST containing 2% BSA (Sigma, Buchs, Switzerland). Antibodies were incubated 1 hr. at room temperature. Binding was determined using either a donkey anti-human IgGγ-specific antibody conjugated with HRP (Jackson ImmunoResearch, USA) or a goat-anti mouse IgG (H+L)-specific secondary antibody conjugated with HRP (Jackson ImmunoResearch, USA)., followed by measurement of HRP activity in a standard colorimetric assay.

Row | binding result | Binder
29 | no binding | B1
30 | no binding | B2

Biological target: T5, His-huTDP-43 domain II (amino acid residues 99-204) (human)
T5 construct: Amino terminal His-tagged fragment, E. coli
T5 chain: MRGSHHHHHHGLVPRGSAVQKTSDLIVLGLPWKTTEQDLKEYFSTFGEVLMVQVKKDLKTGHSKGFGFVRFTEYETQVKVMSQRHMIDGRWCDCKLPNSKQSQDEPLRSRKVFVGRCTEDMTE
Assay: as above
Method: as §4

Row | binding result | Binder
31 | no binding | B1

Biological target: T6, His-huTDP-43 domain III (amino acid residues 183-273) (human)
T6 construct: Amino terminal His-tagged fragment, E. coli
T6 chain: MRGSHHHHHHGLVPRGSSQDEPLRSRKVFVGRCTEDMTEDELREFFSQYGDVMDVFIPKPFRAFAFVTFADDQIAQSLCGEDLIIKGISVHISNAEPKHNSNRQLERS
Assay: as above
Method: as §4

Row | binding result | Binder
32 | no binding | B1

Biological target: T4, His-huTDP-43 domain I (amino acid …)
Assay: Western blot, 300 ng recombinant protein per lane, primary antibody 10 nM
Method: (§5) Non-specific binding sites were blocked for 1 hr. at room temperature with PBST containing 2% BSA (Sigma, Buchs, Switzerland). Blots were incubated overnight with primary antibodies (10 nM) followed by either a donkey anti-human IgGγ-specific secondary antibody conjugated with HRP (Jackson ImmunoResearch, USA) or a goat-anti mouse IgG (H+L)-specific secondary antibody conjugated with HRP (Jackson ImmunoResearch, USA). Blots were developed using ECL and ImageQuant 350 detection (GE Healthcare, Otelfingen, Switzerland).

Row | binding result | Binder
33 | no binding (tested: 10 nM) | B5
34 | no binding (tested: 10 nM) | B3
35 | no binding (tested: 10 nM) | B9

Biological target: T5, His-huTDP-43 domain II (amino acid …)
Assay: as above
Method: as §5

Row | binding result | Binder
36 | no binding (tested: 10 nM) | B5
37 | no binding (tested: 10 nM) | B3
38 | no binding (tested: 10 nM) | B9

Biological target: T6, His-huTDP-43 domain III (amino acid …)
Assay: as above
Method: as §5

Row | binding result | Binder
39 | no binding (tested: 10 nM) | B5
40 | no binding (tested: 10 nM) | B2
41 | no binding (tested: 10 nM) | B3
42 | no binding (tested: 10 nM) | B9
